Assays:
[1] = target: Grb2 SH2 (UniProt P62993); test: SH2 binding enrichment of the phosphorylated peptide, bacterial display (enrichment ratio); higher = better substrate or ligand; peptides without Tyr show the background
[2] = target: c-Src SH2; test: as above
[3] = target: SHP2-C SH2; test: as above
[4] = target: EPHB2 (UniProt P29323); test: phosphorylation enrichment, bacterial display (enrichment ratio); higher = better substrate or ligand; peptides without Tyr show the background
[5] = test system: c-Abl (mouse); test: as above
[6] = test system: c-Src; test: as above
[7] = target: FGFR1 (UniProt P11362); test: as above
[8] = target: Jak2 (UniProt O60674); test: as above
[9] = test system: Fer (mouse); test: as above
[10] = target: EPHB1 (UniProt P54762); test: as above
[11] = target: Hck (UniProt P08631); test: as above
[12] = target: FGFR3 (UniProt P22607); test: as above
[13] = target: MERTK (UniProt Q12866); test: as above
[14] = target: Fyn (UniProt P06241); test: as above
[15] = test system: AncSZ; test: as above
[16] = target: Fes (UniProt P07332); test: as above
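For SH2 binding enrichment of the phosphorylated peptide, bacterial display in this document: peptide library displayed on the E. coli surface as eCPX fusions, selected cells deep-sequenced, score is each peptide's frequency after selection divided by its frequency in the input.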
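For phosphorylation enrichment, bacterial display in this document: 11-residue human phosphosite peptides and single-mutation variants displayed on the E. coli surface, counted by deep sequencing, each peptide's frequency after selection divided by its frequency in the unselected input library; frequency after pTyr selection over input frequency; kinase dosed for 20-30% of maximal phosphorylation in three min.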

Sequence of FGFR3 (P22607 whole entry, looked up): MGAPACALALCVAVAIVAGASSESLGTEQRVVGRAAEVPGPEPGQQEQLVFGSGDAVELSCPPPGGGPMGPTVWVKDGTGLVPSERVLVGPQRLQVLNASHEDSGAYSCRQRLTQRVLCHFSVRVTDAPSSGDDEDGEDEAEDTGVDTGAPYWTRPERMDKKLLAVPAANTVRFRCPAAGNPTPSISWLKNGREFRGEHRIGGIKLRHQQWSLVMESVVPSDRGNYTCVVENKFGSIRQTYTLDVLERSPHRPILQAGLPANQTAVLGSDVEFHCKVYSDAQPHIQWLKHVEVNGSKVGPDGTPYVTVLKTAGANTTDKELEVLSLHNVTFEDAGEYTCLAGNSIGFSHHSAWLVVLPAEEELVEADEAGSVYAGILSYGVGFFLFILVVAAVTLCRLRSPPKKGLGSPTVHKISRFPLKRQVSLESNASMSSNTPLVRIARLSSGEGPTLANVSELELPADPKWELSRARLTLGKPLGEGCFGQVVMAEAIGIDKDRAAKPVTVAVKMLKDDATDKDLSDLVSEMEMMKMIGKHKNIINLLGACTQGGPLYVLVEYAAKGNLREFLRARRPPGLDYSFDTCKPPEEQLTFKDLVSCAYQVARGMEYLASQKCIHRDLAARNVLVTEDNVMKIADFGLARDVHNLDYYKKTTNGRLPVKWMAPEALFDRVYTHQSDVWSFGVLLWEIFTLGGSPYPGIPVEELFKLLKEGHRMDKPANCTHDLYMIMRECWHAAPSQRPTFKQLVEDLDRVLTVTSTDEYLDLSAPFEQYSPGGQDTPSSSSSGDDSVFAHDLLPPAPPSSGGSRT
Sequence of Jak2 (O60674 whole entry, looked up): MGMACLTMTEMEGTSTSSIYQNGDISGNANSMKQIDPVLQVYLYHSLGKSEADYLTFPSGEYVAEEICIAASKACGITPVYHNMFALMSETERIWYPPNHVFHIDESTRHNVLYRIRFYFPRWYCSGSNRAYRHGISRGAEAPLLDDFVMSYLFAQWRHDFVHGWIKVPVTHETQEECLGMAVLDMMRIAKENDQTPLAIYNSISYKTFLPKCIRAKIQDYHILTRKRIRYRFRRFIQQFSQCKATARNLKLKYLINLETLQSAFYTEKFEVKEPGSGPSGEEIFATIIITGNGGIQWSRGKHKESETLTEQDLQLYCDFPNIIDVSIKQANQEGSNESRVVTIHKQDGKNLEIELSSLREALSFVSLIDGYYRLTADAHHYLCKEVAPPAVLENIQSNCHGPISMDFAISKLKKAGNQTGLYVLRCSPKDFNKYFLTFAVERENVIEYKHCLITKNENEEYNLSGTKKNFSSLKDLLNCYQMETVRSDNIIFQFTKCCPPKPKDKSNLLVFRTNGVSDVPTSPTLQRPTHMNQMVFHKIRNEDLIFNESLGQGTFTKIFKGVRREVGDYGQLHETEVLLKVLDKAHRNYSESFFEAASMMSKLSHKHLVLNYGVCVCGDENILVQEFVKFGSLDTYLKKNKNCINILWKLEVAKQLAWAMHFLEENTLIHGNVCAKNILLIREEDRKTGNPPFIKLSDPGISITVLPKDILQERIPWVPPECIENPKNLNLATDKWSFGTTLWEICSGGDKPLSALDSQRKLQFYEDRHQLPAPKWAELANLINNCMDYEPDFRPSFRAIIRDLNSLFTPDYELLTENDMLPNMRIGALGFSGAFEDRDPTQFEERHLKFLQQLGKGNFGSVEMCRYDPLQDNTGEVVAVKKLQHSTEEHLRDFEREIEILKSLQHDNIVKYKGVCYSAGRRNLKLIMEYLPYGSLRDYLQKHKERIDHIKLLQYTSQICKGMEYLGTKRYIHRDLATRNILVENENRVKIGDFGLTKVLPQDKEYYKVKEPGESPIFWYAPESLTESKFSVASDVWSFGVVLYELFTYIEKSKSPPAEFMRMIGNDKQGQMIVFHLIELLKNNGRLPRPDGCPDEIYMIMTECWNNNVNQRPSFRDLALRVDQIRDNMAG
Sequence of Fyn (P06241 whole entry, looked up): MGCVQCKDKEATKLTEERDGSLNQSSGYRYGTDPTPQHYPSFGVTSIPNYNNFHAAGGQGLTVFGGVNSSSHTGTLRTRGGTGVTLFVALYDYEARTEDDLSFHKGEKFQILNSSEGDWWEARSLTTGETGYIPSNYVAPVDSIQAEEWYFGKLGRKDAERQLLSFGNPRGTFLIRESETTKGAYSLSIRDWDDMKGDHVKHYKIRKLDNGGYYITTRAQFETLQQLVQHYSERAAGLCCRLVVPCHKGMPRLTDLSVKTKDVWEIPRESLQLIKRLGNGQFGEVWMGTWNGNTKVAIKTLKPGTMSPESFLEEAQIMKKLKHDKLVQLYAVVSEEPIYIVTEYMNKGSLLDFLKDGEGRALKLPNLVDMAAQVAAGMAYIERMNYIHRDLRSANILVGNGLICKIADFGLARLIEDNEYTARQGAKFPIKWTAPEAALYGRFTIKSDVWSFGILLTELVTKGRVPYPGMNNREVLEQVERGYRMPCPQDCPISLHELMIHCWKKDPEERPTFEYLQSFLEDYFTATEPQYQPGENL
Sequence of Fes (P07332 whole entry, looked up, the tested form may be a part): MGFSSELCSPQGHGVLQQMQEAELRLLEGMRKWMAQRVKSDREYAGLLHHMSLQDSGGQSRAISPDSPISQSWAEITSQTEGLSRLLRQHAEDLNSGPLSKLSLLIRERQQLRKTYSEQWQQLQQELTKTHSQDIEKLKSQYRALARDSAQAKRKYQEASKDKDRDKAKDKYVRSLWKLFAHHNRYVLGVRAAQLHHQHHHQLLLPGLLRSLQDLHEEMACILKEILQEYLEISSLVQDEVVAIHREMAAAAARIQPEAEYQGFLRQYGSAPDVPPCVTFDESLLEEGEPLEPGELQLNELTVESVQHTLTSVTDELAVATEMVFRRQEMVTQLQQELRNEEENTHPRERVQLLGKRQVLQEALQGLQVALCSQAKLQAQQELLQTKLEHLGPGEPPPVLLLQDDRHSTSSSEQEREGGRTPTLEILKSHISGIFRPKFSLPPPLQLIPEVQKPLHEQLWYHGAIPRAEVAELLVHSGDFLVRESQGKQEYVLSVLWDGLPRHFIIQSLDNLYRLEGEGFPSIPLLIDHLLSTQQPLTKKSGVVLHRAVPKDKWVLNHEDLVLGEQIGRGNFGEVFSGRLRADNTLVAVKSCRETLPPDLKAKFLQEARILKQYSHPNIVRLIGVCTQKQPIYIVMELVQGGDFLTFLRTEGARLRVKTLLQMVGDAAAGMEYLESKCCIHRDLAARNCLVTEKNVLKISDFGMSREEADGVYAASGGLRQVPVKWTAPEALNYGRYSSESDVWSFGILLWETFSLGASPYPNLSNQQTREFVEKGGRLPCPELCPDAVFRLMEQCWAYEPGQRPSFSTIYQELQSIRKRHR
Sequence of EPHB2 (P29323 whole entry, looked up): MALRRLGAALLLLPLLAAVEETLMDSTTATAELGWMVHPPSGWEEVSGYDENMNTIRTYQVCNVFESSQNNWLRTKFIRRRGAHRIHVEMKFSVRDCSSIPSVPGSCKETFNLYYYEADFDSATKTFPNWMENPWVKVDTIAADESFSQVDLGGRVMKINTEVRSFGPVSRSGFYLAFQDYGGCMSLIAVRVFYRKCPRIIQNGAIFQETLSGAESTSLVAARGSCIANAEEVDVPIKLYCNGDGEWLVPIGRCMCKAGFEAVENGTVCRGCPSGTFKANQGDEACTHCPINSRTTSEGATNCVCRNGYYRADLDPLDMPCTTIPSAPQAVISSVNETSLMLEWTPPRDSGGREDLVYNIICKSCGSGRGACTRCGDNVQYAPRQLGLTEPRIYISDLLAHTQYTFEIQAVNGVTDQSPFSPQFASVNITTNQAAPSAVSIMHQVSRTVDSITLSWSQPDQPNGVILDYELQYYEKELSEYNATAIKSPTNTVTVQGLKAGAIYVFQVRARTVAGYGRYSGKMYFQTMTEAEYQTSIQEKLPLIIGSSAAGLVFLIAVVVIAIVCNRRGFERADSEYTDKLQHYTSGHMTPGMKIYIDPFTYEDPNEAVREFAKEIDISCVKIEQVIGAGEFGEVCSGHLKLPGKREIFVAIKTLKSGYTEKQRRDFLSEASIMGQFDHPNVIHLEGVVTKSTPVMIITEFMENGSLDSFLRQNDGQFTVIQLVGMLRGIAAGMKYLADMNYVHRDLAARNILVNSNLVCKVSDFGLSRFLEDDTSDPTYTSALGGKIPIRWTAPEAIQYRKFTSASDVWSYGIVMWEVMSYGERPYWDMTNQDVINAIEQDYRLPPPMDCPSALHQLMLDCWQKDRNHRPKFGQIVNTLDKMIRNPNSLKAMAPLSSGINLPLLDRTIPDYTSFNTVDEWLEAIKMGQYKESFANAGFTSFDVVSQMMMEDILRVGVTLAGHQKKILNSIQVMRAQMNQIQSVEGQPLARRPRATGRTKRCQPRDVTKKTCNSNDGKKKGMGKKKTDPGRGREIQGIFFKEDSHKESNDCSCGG
Sequence of Hck (P08631 whole entry, looked up): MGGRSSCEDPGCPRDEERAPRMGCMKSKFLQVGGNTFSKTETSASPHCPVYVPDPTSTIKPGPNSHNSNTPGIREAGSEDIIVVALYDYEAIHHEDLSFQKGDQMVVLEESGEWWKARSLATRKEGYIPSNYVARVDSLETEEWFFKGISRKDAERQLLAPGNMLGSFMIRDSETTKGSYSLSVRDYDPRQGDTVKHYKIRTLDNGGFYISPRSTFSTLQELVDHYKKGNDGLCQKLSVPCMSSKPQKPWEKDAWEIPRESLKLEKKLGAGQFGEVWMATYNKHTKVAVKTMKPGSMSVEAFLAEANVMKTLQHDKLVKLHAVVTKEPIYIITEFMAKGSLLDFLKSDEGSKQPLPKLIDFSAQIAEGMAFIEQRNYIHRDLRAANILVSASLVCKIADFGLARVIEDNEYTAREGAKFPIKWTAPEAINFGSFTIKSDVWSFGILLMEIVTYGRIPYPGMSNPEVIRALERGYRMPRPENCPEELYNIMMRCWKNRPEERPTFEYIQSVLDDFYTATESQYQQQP

| Sequence | SH2 binding enrichment [1] | SH2 binding enrichment [2] | SH2 binding enrichment [3] | phosphorylation enrichment [4] | phosphorylation enrichment [5] | phosphorylation enrichment [6] | phosphorylation enrichment [7] | phosphorylation enrichment [8] | phosphorylation enrichment [9] | phosphorylation enrichment [10] | phosphorylation enrichment [11] | phosphorylation enrichment [12] | phosphorylation enrichment [13] | phosphorylation enrichment [14] | phosphorylation enrichment [15] | phosphorylation enrichment [16] |
| --- | --- | --- | --- | --- | --- | --- | --- | --- | --- | --- | --- | --- | --- | --- | --- | --- |
| WIPIQDPIISE [NOG_Y222_Y222D] | 0.729 | 0.488 | 0.748 | 0.551 | 0.882 | 0.557 | 0.578 | 0.965 | 0.52 | 0.678 | 0.622 | 0.717 | 0.474 | 0.578 | 1.18 | 1.24 |
| YTHSDYQYGQR [PKP2_Y166_S169G] | 0.712 | 0.692 | 0.885 | 0.416 | 0.492 | 0.439 | 0.531 | 0.317 | 0.572 | 0.436 | 0.703 | 0.606 | 0.424 | 0.476 | 0.867 | 0.496 |
| TTKGAYSLSIR [YES1_Y194] | 1.36 | 0.792 | 0.434 | 0.414 | 0.669 | 0.567 | 0.49 | 0.614 | 0.383 | 0.369 | 0.445 | 0.395 | 0.548 | 0.406 | 0.656 | 0.681 |
| CTTIHYNFMCK [TP53_Y234_N239K_YF] | 1.4 | 1.68 | 2.05 | 0.387 | 0.562 | 0.413 | 0.418 | 0.631 | 0.351 | 0.403 | 0.533 | 0.489 | 0.407 | 0.476 | 0.659 | 0.816 |
| FEPDAYFDLDQ [ELP5_Y302_D303Y_YF] | 0.814 | 0.501 | 0.499 | 0.656 | 0.91 | 0.584 | 5.04 | 1.82 | 0.648 | 0.678 | 0.622 | 4.43 | 0.477 | 0.598 | 1.52 | 1.34 |
| EDKFMYSEFPQ [PTEN_Y240_F241S] | 0.951 | 0.542 | 0.739 | 1.05 | 1.03 | 2.91 | 1.49 | 1.14 | 0.734 | 0.771 | 2.07 | 1.45 | 2.02 | 1.25 | 1.51 | 1.21 |
| LIHTKYPQLLP [AHCY_Y143] | 0.54 | 0.42 | 0.725 | 0.562 | 0.575 | 0.379 | 0.639 | 0.679 | 0.395 | 0.642 | 0.428 | 0.573 | 0.6 | 0.449 | 0.808 | 0.81 |
| CNSFRYGGGGG [NPPA_Y151] | 0.692 | 0.586 | 1.29 | 0.552 | 0.597 | 0.311 | 0.389 | 0.5 | 0.488 | 0.35 | 0.349 | 0.469 | 0.348 | 0.439 | 0.857 | 0.766 |
| CTTIHCNFMCN [TP53_Y234_Y234C_YF] | 1.22 | 0.837 | 0.889 | 0.546 | 0.629 | 0.441 | 0.45 | 0.862 | 0.454 | 0.67 | 0.446 | 0.574 | 0.441 | 0.419 | 0.782 | 0.869 |
| VDFQPYRKHKF [TEX37_Y28_YF] | 0.991 | 0.844 | 0.87 | 0.32 | 0.595 | 0.377 | 0.401 | 0.479 | 0.463 | 0.403 | 0.451 | 0.587 | 0.472 | 0.45 | 0.553 | 0.639 |
| EQMLEYMGQLQ [CFAP45_Y289_E291G] | 0.794 | 0.42 | 0.553 | 0.493 | 0.762 | 0.505 | 0.447 | 0.873 | 0.427 | 0.436 | 0.507 | 0.595 | 0.448 | 0.542 | 0.913 | 1.01 |
| MKKMHYVDPDR [ST3GAL5_Y99_H104R] | 0.879 | 0.567 | 0.76 | 0.388 | 0.436 | 0.322 | 0.331 | 0.534 | 0.346 | 0.321 | 0.349 | 0.521 | 0.294 | 0.395 | 0.407 | 0.495 |
| KFLENYLNCLL [PLD2_Y169_R172C_YF] | 1.45 | 1.25 | 1.61 | 0.676 | 0.91 | 0.572 | 0.759 | 1.23 | 0.532 | 0.748 | 0.474 | 0.859 | 0.461 | 0.497 | 1.23 | 1.17 |
| LQIPMYEVQWK [KIT_Y553_K550I] | 0.884 | 0.661 | 1.06 | 24.1 | 1.01 | 1.55 | 1.14 | 0.721 | 2.54 | 22.6 | 2.24 | 0.848 | 7.37 | 2.45 | 2.5 | 2.04 |
| MPLTEYLKRIK [CNGB3_Y200] | 1.01 | 0.489 | 0.75 | 0.365 | 0.525 | 0.325 | 0.381 | 0.613 | 0.345 | 0.266 | 0.365 | 0.462 | 0.379 | 0.34 | 0.621 | 0.616 |
| HNLFSYPTKFE [MYO3A_Y1396_H1400Y_YF] | 0.706 | 0.503 | 1.56 | 0.507 | 0.881 | 0.703 | 0.671 | 1.44 | 0.562 | 0.474 | 0.684 | 0.752 | 0.569 | 0.565 | 0.869 | 1.29 |
| YISLIYTNYEA [GSTP1_Y109] | 1.24 | 1.75 | 1.53 | 1.71 | 1.31 | 4.21 | 4.5 | 1.23 | 1.72 | 1.7 | 2.83 | 3.6 | 3.44 | 3.72 | 1.68 | 1.23 |

| Sequence | SH2 binding enrichment [1] | SH2 binding enrichment [2] | SH2 binding enrichment [3] | phosphorylation enrichment [4] | phosphorylation enrichment [5] | phosphorylation enrichment [6] | phosphorylation enrichment [7] | phosphorylation enrichment [8] | phosphorylation enrichment [9] | phosphorylation enrichment [10] | phosphorylation enrichment [11] | phosphorylation enrichment [12] | phosphorylation enrichment [13] | phosphorylation enrichment [14] | phosphorylation enrichment [15] | phosphorylation enrichment [16] |
| --- | --- | --- | --- | --- | --- | --- | --- | --- | --- | --- | --- | --- | --- | --- | --- | --- |
| FLQEIYNSNNQ [FGG_Y140_YF] | 0.89 | 0.53 | 1.1 | 0.602 | 0.713 | 1.64 | 0.65 | 0.907 | 0.63 | 0.79 | 1.69 | 0.883 | 0.514 | 1.46 | 1.07 | 1.08 |
| EPVSDYINASI [PTPN11_Y304_N308S] | 1.06 | 0.512 | 0.593 | 0.566 | 0.909 | 0.526 | 0.569 | 0.953 | 0.5 | 0.608 | 0.49 | 0.651 | 0.494 | 0.385 | 1.05 | 1.03 |
| MALDIYRASYY [ALK_Y1278_R1275L] | 1.15 | 1.19 | 0.9 | 0.564 | 2.99 | 1.76 | 0.655 | 0.86 | 0.434 | 0.594 | 1.57 | 0.713 | 0.674 | 0.974 | 0.874 | 0.911 |
| SSAAGYACLAF [MVD_Y131_YF] | 0.732 | 1.55 | 10 | 0.455 | 0.946 | 0.494 | 0.446 | 0.919 | 0.493 | 0.536 | 0.585 | 0.763 | 0.538 | 0.428 | 0.948 | 1.07 |
| VGRVGYVSGWG [HP_Y280] | 0.809 | 0.606 | 0.854 | 0.514 | 0.807 | 0.507 | 0.427 | 0.821 | 0.395 | 0.4 | 0.415 | 0.56 | 0.406 | 0.456 | 0.781 | 0.792 |
| RRIHSYRGYLW [VHL_Y112_H115Y] | 0.902 | 0.53 | 0.534 | 0.605 | 0.375 | 0.517 | 0.581 | 0.717 | 0.676 | 0.614 | 0.64 | 0.915 | 0.488 | 0.551 | 0.646 | 0.905 |
| KLIETYSSKNF [PLP1_Y50_F51S_YF] | 0.713 | 0.422 | 0.472 | 0.618 | 0.588 | 0.451 | 0.446 | 0.59 | 0.388 | 0.769 | 0.519 | 0.46 | 0.401 | 0.504 | 0.654 | 0.996 |
| VQQVIYATRAL [MYH7_Y422_G425R] | 0.652 | 0.518 | 1.06 | 0.505 | 14.1 | 7.24 | 0.468 | 0.598 | 0.57 | 0.434 | 8.57 | 0.534 | 0.711 | 9.04 | 0.663 | 0.684 |
| LTECGYSFTTT [ACTB_Y198_R196C] | 0.574 | 0.736 | 0.602 | 0.781 | 0.708 | 0.671 | 0.674 | 0.889 | 0.733 | 0.592 | 0.555 | 0.754 | 0.417 | 0.582 | 1.09 | 1.15 |
| RQGQAYRGQRV [TSHR_Y706_A703G] | 0.552 | 0.489 | 0.334 | 0.339 | 0.458 | 0.453 | 0.452 | 0.48 | 0.649 | 0.338 | 0.47 | 0.447 | 0.454 | 0.509 | 0.718 | 0.805 |
| TGVWDYIHVVD [GALE_Y241_R239W] | 0.746 | 0.383 | 0.552 | 0.588 | 0.966 | 0.471 | 0.684 | 1.39 | 0.493 | 0.756 | 0.566 | 0.916 | 0.433 | 0.47 | 1.43 | 1.43 |
| RNFDTYTAGLS [RHBDD1_Y264_YF] | 0.664 | 0.428 | 0.514 | 3.55 | 0.436 | 1.15 | 0.407 | 0.511 | 0.394 | 1.9 | 3.7 | 0.355 | 0.452 | 0.9 | 0.62 | 0.802 |
| HFGNNYRDVLQ [MACC1_Y803_YF] | 0.909 | 0.472 | 2.13 | 0.627 | 0.848 | 0.65 | 0.711 | 1.06 | 0.558 | 0.648 | 0.594 | 0.68 | 0.64 | 0.614 | 0.851 | 1.72 |
| EVKAQNEDIAQ [KRT1_Y358_Y358N] | 0.977 | 0.587 | 0.669 | 0.549 | 0.51 | 0.427 | 0.54 | 0.767 | 0.411 | 0.422 | 0.488 | 0.584 | 0.511 | 0.413 | 0.86 | 0.867 |
| VCDALYPPGPP | 0.863 | 0.62 | 0.675 | 0.329 | 0.766 | 0.443 | 0.421 | 0.73 | 0.489 | 0.465 | 0.288 | 0.467 | 0.282 | 0.306 | 0.779 | 0.794 |
| GEEIKYMLWLS [OTC_Y55] | 0.646 | 0.346 | 0.714 | 0.62 | 1.19 | 0.518 | 0.682 | 1.21 | 0.745 | 0.592 | 0.645 | 0.934 | 0.703 | 0.493 | 1.24 | 1.28 |

Source: the supplement of paper PMC10065799, “High-throughput profiling of sequence recognition by tyrosine kinases and SH2 domains using bacterial peptide display” (eLife, 2023)
